Data: PMC4017094, “Mouse SLX4 Is a Tumor Suppressor that Stimulates the Activity of the Nuclease XPF-ERCC1 in DNA Crosslink Repair” (Molecular Cell, 2014)

B1: Recombinant mini-SLX4 (1-758) (domain or fragment, mouse, UniProt Q6P1D7 1-758, looked up)
chain: MVPESAPNGNSQPLPSCFTTTGVPSPSKPRVSELVLQRMKQFKRADPERLRHASEESPQKTALGDDVPRSPPEETVGENEYKLDATDSDAAMALALQQEFRREEASSHHDSLEEKGLFFCQMCQKNLSAMNVTRREQHVNRCLDEAEKAQRPASPRIPDCPICGKPFLTTKSRISHLKQCAVRMEVGPQLLLQAVRLQTAQPEVDGSPQVPSFSNNVGGLKRKGVTTKREPRRRKVNKPEAPSEDLLVAMALSRSEVEHCPVVPPLRLENAFSEKIRLGAEKKSRKKRPPVCPPQLVTQDSETTGRQIEDRVAQLLSEEAELSCTPPLLASKISKEELEPAGWRARLPEGKRNFLWELSALTGAWAEESFYTVGLFPPIVSQCPSKEPQLPLELPKQGEPSPRRPPASQSSLPVSHSPKIRLLSSSQRERQALQDLVDLAVEGLSSSPQPGSRGVPTGLDLVPSSLPLTGFVLPCKKTLKKDDSASLSLGLLVTDFGAMVNNPHLSDVQFQLDSGEVLYAHKFVLYARCPLLIQYVSTESFSSEEDGDLTQRALLSDVSSEAAHAFLNYLYMADTDMPPSLVPDLRSLALRFGVSDLVQLCEQVPAVVDLEGEQPEETSEDCESRAETFLELLRSVWVDNEEEVETLLKPELCEEERERVNEAEMEEIYEFAATQRKLLQWGRAADPDGSTNPHGEDGAVSEPSLAGVQSNRQLENTEHMESSGLEKEEALASWEQEGHSTPLQDQCPDWAGKAEAQD
notes: mouse SLX4, residues 1-758; source: insect cells, purified (in complex with XPF-ERCC1, or alone)
B2: mini-SLX4-XPF-ERCC1 (SXE) complex (complex)
chain 1: B1 chain
chain 2: MEPGLSGERRSMAPLLEYERQQVLELLDSDGLVVCARGLGTDRLLYHFLRLHCHPACLVLVLNTQPAEEEYFINQLKIEGVEHLPRRVTNEIASNSRYEVYTQGGIIFATSRILVVDFLTGRIPSDLITGILVYRAHRIIESCQEAFILRLFRQKNKRGFIKAFTDNAVAFDTGFCHVERVMRNLFVRKLYLWPRFHVAVNSFLEQHKPEVVEIHVSMTPAMLAIQTAILDILNACLKELKCHNPSLEVEDLSLENALGKPFDKTIRHYLDPLWHQLGAKTKSLVQDLKILRTLLQYLSQYDCVTFLNLLESLRATEKVFGQNSGWLFLDASTSMFVNARARVYRVPDVKLNKKAKTSEKTSSPEVQETKKELVLESNPKWEALTDVLKEIEAENKESEALGGPGRVLICASDDRTCCQLRDYLSAGAETFLLRLYRKTFEKDGKAEEVWVNVRKGDGPKRTTKSDKRPKAAPNKERASAKRGAPLKRKKQELTLTQVLGSAEEPPEDKALEEDLCRQTSSSPEGCGVEIKRESFDLNVSSDAAYGILKEPLTIIHPLLGCSDPYALTRVLHEVEPRYVVLYDAELTFVRQLEIYRASRPGKPLRVYFLIYGGSTEEQRYLTALRKEKEAFEKLIREKASMVVPEEREGRDETNLDLARGSAALDAPTDTRKAGGQEQNGTQSSIVVDMREFRSELPSLIHRRGIDIEPVTLEVGDYILTPELCVERKSVSDLIGSLHSGRLYSQCLAMSRYYRRPVLLIEFDPSKPFSLAPRGAFFQEMSSSDVSSKLTLLTLHFPRLRLLWCPSPHATAELFEELKQNKPQPDAATAMAITADSETLPESDRYNPGPQDFVLKMPGVNAKNCRSLMNQVKNIAELATLSLERLTTILGHSGNAKQLHDFLHTAYADLVSKGRVRK
chain 3: MDPGKDEESRPQPSGPPTRRKFVIPLEEEEVPCAGVKPLFRSSRNPTIPATSAHVAPQTYAEYAITQPPGGAGATVPTGSEPAAGENPSQTLKTGAKSNSIIVSPRQRGNPVLKFVRNVPWEFGEVIPDYVLGQSTCALFLSLRYHNLHPDYIHERLQSLGKNFALRVLLVQVDVKDPQQALKELAKMCILADCTLVLAWSAEEAGRYLETYKAYEQKPADLLMEKLEQNFLSRATECLTTVKSVNKTDSQTLLATFGSLEQLFTASREDLALCPGLGPQKARRLFEVLHEPFLKVPR
notes: mouse SLX4, residues 1-758; XPF, wild type; ERCC1; 430 kDa by light scattering; also called WT SXE; source: insect cells, purified; copies: 2 + 2 + 2

Key:
[1] = molecular target: T1, XPF-ERCC1 nuclease (XE), recombinant (UniProt Q9QZD4 1-917; P07903 1-298); experiment: cell-based or functional assay
T1 sequence (looked up) 1: B2 chain 2
T1 sequence (looked up) 2: B2 chain 3

[2] = molecular target: T1, XPF-ERCC1 nuclease (XE), recombinant; experiment: SEC-MALS; light-scattering analysis of the purified SXE complex (Figure S1F); settings: both partners purified
[3] = molecular target: the molecule itself; experiment: as above

Binder | incision rate on the interstrand crosslink (ICL) fork substrate, SXE against XE (5 nM enzyme) [1] [fold] | nuclease rate on the bubble substrate, SXE against XE (5 nM enzyme) [1] [fold] | nuclease rate on the fork substrate Y11, SXE against XE (5 nM enzyme) [1] [fold] | nuclease rate on the long stem-loop substrate, SXE against XE (5 nM enzyme) [1] [fold] | stoichiometry N [2] | stoichiometry N [3]
B1 | 110 | 3.5 | 16 | 3.7 | 1 | –
B2 | – | – | – | – | – | 2
